# Source: patent US20150344570A1 (published 2015)
# T1: FcγRIIa R (human, UniProt P12318 34-217)
# T1 construct: extracellular domain; also called FcgRIIa R type; 2aR; not shown: His tag at the C terminus
# T1 sequence (looked up): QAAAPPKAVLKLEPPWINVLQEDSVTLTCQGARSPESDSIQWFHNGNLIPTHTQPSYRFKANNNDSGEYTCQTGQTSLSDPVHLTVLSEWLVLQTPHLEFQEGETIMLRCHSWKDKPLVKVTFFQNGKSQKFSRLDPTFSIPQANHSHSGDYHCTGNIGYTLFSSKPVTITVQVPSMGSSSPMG
# T2: FcγRIIb (human, UniProt P31994 43-217)
# T2 construct: extracellular domain; also called FcgRIIb; 2b; not shown: His tag at the C terminus
# T2 sequence (looked up): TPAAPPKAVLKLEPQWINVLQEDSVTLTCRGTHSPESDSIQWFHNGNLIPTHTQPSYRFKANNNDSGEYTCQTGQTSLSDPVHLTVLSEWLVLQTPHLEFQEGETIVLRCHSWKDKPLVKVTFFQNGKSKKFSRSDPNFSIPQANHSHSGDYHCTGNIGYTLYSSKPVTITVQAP
# T3: FcγRIIb extracellular domain with C-terminal His tag (human, UniProt P31994 43-217)
# T3 construct: extracellular domain; also called FcgRIIb; 2b; not shown: His tag at the C terminus
# T3 sequence (looked up): T2 sequence (looked up)
# B1: GpH7-A5/GpH7-B3 variant S267_19Q/GpL16-k0 (antibody, human IgG1, kappa)
# heavy 1: not shown
# heavy 2: not shown
# light: DIVMTQSPLSLPVTPGEPASISCQASESLVHSNRNTYLHWYLQKPGQSPQLLIYKVSNRFSGVPDRFSGSGSGTDFTLKISRVEAEDVGVYYCSQNTHVPPTFGQGTKVEIERTVAAPSVFIFPPSDEQLKSGTASVVCLLNNFYPREAKVQWKVDNALQSGNSQESVTEQDSKDSTYSLSSTLTLSKADYEKHKVYACEVTHQGLSSPVTKSFNRGEC
# notes: Heterodimerized anti-glypican-3 IgG1; mutation in the GpH7-B3 chain only; also called He Ab
# B2: GpH7-A5/GpH7-B3 variant N325_01G/GpL16-k0 (antibody, human IgG1, kappa)
# heavy 1: not shown
# heavy 2: not shown
# light: B1 light
# notes: Heterodimerized IgG1 antibody; alteration in the GpH7-B3 chain only; also called He Ab
# B3: GpH7-A5/GpH7-B3 variant Y300_10E/GpL16-k0 (antibody, human IgG1, kappa)
# heavy 1: not shown
# heavy 2: not shown
# light: B1 light
# notes: as for B1
# B4: GpH7-A5/GpH7-B3 variant A327_10E/GpL16-k0 (antibody, human IgG1, kappa)
# heavy 1: not shown
# heavy 2: not shown
# light: B1 light
# notes: as for B2
# B5: GpH7-A5/GpH7-B3 variant A327_01G/GpL16-k0 (antibody, human IgG1, kappa)
# heavy 1: not shown
# heavy 2: not shown
# light: B1 light
# notes: as for B2
# B6: GpH7-A5/GpH7-B3 variant A327_09D/GpL16-k0 (antibody, human IgG1, kappa)
# heavy 1: not shown
# heavy 2: not shown
# light: B1 light
# notes: as for B2
# B7: GpH7-A5/GpH7-B3 variant A327_14T/GpL16-k0 (antibody, human IgG1, kappa)
# heavy 1: not shown
# heavy 2: not shown
# light: B1 light
# notes: as for B2
# B8: GpH7-A5/GpH7-B3 variant V266_05P/GpL16-k0 (antibody, human IgG1, kappa)
# heavy 1: not shown
# heavy 2: not shown
# light: B1 light
# notes: as for B1
# B9: GpH7-A5/GpH7-B3 variant K326_10E/GpL16-k0 (antibody, human IgG1, kappa)
# heavy 1: not shown
# heavy 2: not shown
# light: B1 light
# notes: as for B2
# B10: GpH7-A5/GpH7-B3 variant A327_07I/GpL16-k0 (antibody, human IgG1, kappa)
# heavy 1: not shown
# heavy 2: not shown
# light: B1 light
# notes: as for B2
# B11: GpH7-A5/GpH7-B3 variant A327_03V/GpL16-k0 (antibody, human IgG1, kappa)
# heavy 1: not shown
# heavy 2: not shown
# light: B1 light
# notes: as for B2
# B12: GpH7-A5/GpH7-B3 variant A327_15Y/GpL16-k0 (antibody, human IgG1, kappa)
# heavy 1: not shown
# heavy 2: not shown
# light: B1 light
# notes: as for B2
# B13: GpH7-A5/GpH7-B3 variant A327_18N/GpL16-k0 (antibody, human IgG1, kappa)
# heavy 1: not shown
# heavy 2: not shown
# light: B1 light
# notes: as for B2
# B14: GpH7-A5/GpH7-B3 variant V266_11K/GpL16-k0 (antibody, human IgG1, kappa)
# heavy 1: not shown
# heavy 2: not shown
# light: B1 light
# notes: as for B1
# B15: GpH7-A5/GpH7-B3 variant K326_15Y/GpL16-k0 (antibody, human IgG1, kappa)
# heavy 1: not shown
# heavy 2: not shown
# light: B1 light
# notes: as for B2
# B16: GpH7-A5/GpH7-B3 variant K326_09D/GpL16-k0 (antibody, human IgG1, kappa)
# heavy 1: not shown
# heavy 2: not shown
# light: B1 light
# notes: as for B2
# B17: GpH7-A5/GpH7-B3 variant A327_04F/GpL16-k0 (antibody, human IgG1, kappa)
# heavy 1: not shown
# heavy 2: not shown
# light: B1 light
# notes: as for B2
# B18: GpH7-A5/GpH7-B3 variant V266_07I/GpL16-k0 (antibody, human IgG1, kappa)
# heavy 1: not shown
# heavy 2: not shown
# light: B1 light
# notes: as for B1
# B19: GpH7-A5/GpH7-B3 variant K326_20W/GpL16-k0 (antibody, human IgG1, kappa)
# heavy 1: not shown
# heavy 2: not shown
# light: B1 light
# notes: as for B2
# B20: GpH7-A5/GpH7-B3 variant L328_04F/GpL16-k0 (antibody, human IgG1, kappa)
# heavy 1: not shown
# heavy 2: not shown
# light: B1 light
# notes: as for B2
# B21: GpH7-A5/GpH7-B3 variant V266_04F/GpL16-k0 (antibody, human IgG1, kappa)
# heavy 1: not shown
# heavy 2: not shown
# light: B1 light
# notes: as for B1
# B22: GpH7-A5/GpH7-B3 variant L328_02A/GpL16-k0 (antibody, human IgG1, kappa)
# heavy 1: not shown
# heavy 2: not shown
# light: B1 light
# notes: as for B2
# B23: GpH7-A5/GpH7-B3 variant A327_20W/GpL16-k0 (antibody, human IgG1, kappa)
# heavy 1: not shown
# heavy 2: not shown
# light: B1 light
# notes: as for B2
# B24: GpH7-A5/GpH7-B3 variant A327_08L/GpL16-k0 (antibody, human IgG1, kappa)
# heavy 1: not shown
# heavy 2: not shown
# light: B1 light
# notes: as for B2
# B25: GpH7-A5/GpH7-B3 variant K326_03V/GpL16-k0 (antibody, human IgG1, kappa)
# heavy 1: not shown
# heavy 2: not shown
# light: B1 light
# notes: as for B2
# B26: GpH7-A5/GpH7-B3 variant V266_06M/GpL16-k0 (antibody, human IgG1, kappa)
# heavy 1: not shown
# heavy 2: not shown
# light: B1 light
# notes: as for B1
# B27: GpH7-A5/GpH7-B3 variant K326_07I/GpL16-k0 (antibody, human IgG1, kappa)
# heavy 1: not shown
# heavy 2: not shown
# light: B1 light
# notes: as for B2
# B28: GpH7-A5/GpH7-B3 variant L328_03V/GpL16-k0 (antibody, human IgG1, kappa)
# heavy 1: not shown
# heavy 2: not shown
# light: B1 light
# notes: as for B2
# B29: GpH7-A5/GpH7-B3 variant K326_19Q/GpL16-k0 (antibody, human IgG1, kappa)
# heavy 1: not shown
# heavy 2: not shown
# light: B1 light
# notes: as for B2
# B30: GpH7-A5/GpH7-B3 variant L328_01G/GpL16-k0 (antibody, human IgG1, kappa)
# heavy 1: not shown
# heavy 2: not shown
# light: B1 light
# notes: as for B2
# B31: GpH7-A5/GpH7-B3 variant K326_06M/GpL16-k0 (antibody, human IgG1, kappa)
# heavy 1: not shown
# heavy 2: not shown
# light: B1 light
# notes: as for B2
# B32: GpH7-A5/GpH7-B3 variant K326_08L/GpL16-k0 (antibody, human IgG1, kappa)
# heavy 1: not shown
# heavy 2: not shown
# light: B1 light
# notes: as for B2
# B33: GpH7-A5/GpH7-B3 variant V266_08L/GpL16-k0 (antibody, human IgG1, kappa)
# heavy 1: not shown
# heavy 2: not shown
# light: B1 light
# notes: as for B1
# B34: GpH7-A5/GpH7-B3 variant K326_04F/GpL16-k0 (antibody, human IgG1, kappa)
# heavy 1: not shown
# heavy 2: not shown
# light: B1 light
# notes: as for B2
# B35: GpH7-A5/GpH7-B3 variant A327_16H/GpL16-k0 (antibody, human IgG1, kappa)
# heavy 1: not shown
# heavy 2: not shown
# light: B1 light
# notes: as for B2
# Experiments:
# FcγRIIa R [1] = biological target: T1, FcγRIIa R; assay: SPR, relative to GpH7-A5/GpH7-B3/GpL16-k0
# FcγRIIb = biological target: T2, FcγRIIb; assay: SPR, relative to GpH7-A5/GpH7-B3/GpL16-k0
# FcγRIIa R [2] = biological target: T1, FcγRIIa R; assay: SPR; He/Con_2aR divided by He/Con_2b (FcγRIIa R over FcγRIIb)
# [3] = biological target: T4, FcγRIIIa extracellular domain with C-terminal His tag (human, UniProt P08637 17-208); assay: SPR (Biacore); He/Con_3a divided by He/Con_2b (FcγRIIb)
# T4 construct: extracellular domain; also called FcgRIIIa; 3a; not shown: His tag at the C terminus
# T4 sequence (P08637 17-208): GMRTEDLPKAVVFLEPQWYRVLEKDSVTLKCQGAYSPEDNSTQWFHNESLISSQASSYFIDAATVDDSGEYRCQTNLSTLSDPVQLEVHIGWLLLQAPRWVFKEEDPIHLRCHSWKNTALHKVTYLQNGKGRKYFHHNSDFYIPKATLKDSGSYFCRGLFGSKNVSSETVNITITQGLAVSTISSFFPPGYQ
# [4] = biological target: T3, FcγRIIb extracellular domain with …; assay: SPR (Biacore), FcγR as analyte over captured antibody; GpH7-A5/GpH7-B3/GpL16-k0 = 100
# Description: (§1) The heterodimerized antibodies He Abs in which one of the H chains was introduced with an alteration were assayed for their binding activities to each activating FcγR and inhibitory FcγR according to the method described in Example 4. […] The activating FcγRs in FIGS. 26, 27, 28, and 29 are FcγRIa, FcγRIIa (R), FcγRIIa (H), and FcγRIIIa, respectively.
# (§2) Analysis of interaction between objective antibody and the FcγR was carried out using Biacore T100 (GE Healthcare). HBS-EP+ (GE Healthcare) was used as the running buffer, and the measurement temperature was set to 25° C. Chips produced by immobilizing the antigen peptide by the amine coupling method to a Series S Sencor Chip CM5 (GE Healthcare), or alternatively, chips produced by allowing preliminarily biotinylated antigen peptides to interact with and immobilize onto a Series S Sensor Chip SA (certified) (GE Healthcare) were used. Antibodies of interest were captured onto an antigen peptide-immobilized chip, and allowed to interact to each FcγR diluted with running buffer. To regenerate and repeatedly use the chip, the antibodies captured on the chip were washed off by reacting 10 mM glycine-HCl, pH 1.5.
# [5] = biological target: T4, FcγRIIIa extracellular domain with …; assay: as above
# Description: as §1, §2
He/Con_2aR (FcγRIIa R [1]) [control = 100],He/Con_2b (FcγRIIb) [control = 100],He_2aR/2b (FcγRIIa R [2]) [ratio],He_3a/2b (IIIa/IIb) [3] [ratio],He/Con_2b [4],He/Con_3a [5],Binder
135,218,0.62,–,–,–,B1
–,–,–,0.28,101 % of control,28 % of control,B2
107,134,0.8,–,–,–,B3
–,–,–,0.49,140 % of control,68.6 % of control,B4
–,–,–,0.63,116 % of control,72.4 % of control,B5
–,–,–,0.49,172 % of control,83.7 % of control,B6
–,–,–,0.46,89.4 % of control,41.4 % of control,B7
-2.9,0.4,-8.33,–,–,–,B8
–,–,–,0.62,200 % of control,124 % of control,B9
–,–,–,0.33,127 % of control,42.4 % of control,B10
–,–,–,0.48,94.7 % of control,45.8 % of control,B11
–,–,–,0.77,60.8 % of control,46.8 % of control,B12
–,–,–,0.54,113 % of control,61.1 % of control,B13
-5.6,1,-5.55,–,–,–,B14
–,–,–,0.7,159 % of control,112 % of control,B15
–,–,–,0.69,193 % of control,134 % of control,B16
–,–,–,0.72,63.7 % of control,46.2 % of control,B17
120,152,0.79,–,–,–,B18

He/Con_2aR (FcγRIIa R [1]) [control = 100],He/Con_2b (FcγRIIb) [control = 100],He_2aR/2b (FcγRIIa R [2]) [ratio],He_3a/2b (IIIa/IIb) [3] [ratio],He/Con_2b [4],He/Con_3a [5],Binder
–,–,–,0.57,148 % of control,84.8 % of control,B19
–,–,–,0.36,219 % of control,79.3 % of control,B20
44.4,57.6,0.77,–,–,–,B21
–,–,–,0.55,144 % of control,79.1 % of control,B22
–,–,–,0.65,78.8 % of control,51.2 % of control,B23
–,–,–,0.67,63.1 % of control,42 % of control,B24
–,–,–,0.7,175 % of control,122 % of control,B25
150,251,0.6,–,–,–,B26
–,–,–,0.7,199 % of control,139 % of control,B27
–,–,–,0.63,126 % of control,78.7 % of control,B28
–,–,–,0.76,139 % of control,106 % of control,B29
–,–,–,0.56,80.2 % of control,44.9 % of control,B30
–,–,–,0.7,165 % of control,115 % of control,B31
–,–,–,0.65,177 % of control,114 % of control,B32
142,236,0.6,–,–,–,B33
–,–,–,0.66,155 % of control,103 % of control,B34
–,–,–,0.69,63.5 % of control,43.7 % of control,B35
